In patent US20260226161A1 (EXELIXIS, published 2026):

T1: CD94 (in the NKG2A/CD94 heterodimeric ectodomain complex) (UniProt Q13241 32-179)
T1 construct: extracellular domain; Tested only as part of the complex; also called CD94 protein
T1 sequence (looked up): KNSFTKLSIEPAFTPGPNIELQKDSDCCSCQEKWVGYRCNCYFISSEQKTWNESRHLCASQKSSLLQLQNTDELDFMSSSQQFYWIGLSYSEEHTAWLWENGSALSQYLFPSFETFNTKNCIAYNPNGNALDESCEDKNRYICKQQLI


Columns and labels:
[1] = target: T1, CD94 (in the NKG2A/CD94 heterodimeric …); experiment: HDX-MS on the NKG2A/CD94 ectodomain complex
Experimental: Two different Quench conditions were used for digestion to improve the coverage. Both Data sets 1 and 2 were collected for 3 different timepoints (2, 10, and 60 mins) in triplicate. D₂O Buffer used was 20 mM Phos, 150 mM NaCl, pH 7.4. The relative fractional uptake greater than 5% was considered significant in the analysis.
Leap HDX auto sampler and Waters Cyclic IMS MS were the instruments used.
Quenching: The exchange reaction was quenched by a shift to acidic pH and a temperature drop (two proprietary conditions were used-potential variation in buffer formulation included the use of denaturants or reducing agents).

[2] = target: T2, cynomolgus NKG2A/CD94 (soluble antigen of the equilibrium assay) (cynomolgus, UniProt Q68VD2 94-233; Q68VD4 32-179, Biotinylated in the Octet assays of Example 2; state in the SPR equilibrium assay not seen.); experiment: SPR equilibrium response, Langmuir isotherm; antibody on chip, soluble antigen
T2 construct: also called Cyno NKG2A/CD94; copies: 1 + 1
Experimental: In addition, a method using an equilibrium approach was performed. Kd determinations for cynomolgus NKG2A/CD94 were performed by measuring the signal response at equilibrium. […] The equilibrium response signals and corresponding antigen concentrations were then input into a Langmuir binding isotherm model, and the Kd was determined through nonlinear regression. Averages and standard deviations were calculated from 24 replicate chip locations for each molecule.

PD-L1 expressed on cells [3] = target: T3, PD-L1 expressed on cells (UniProt Q9NZQ7 19-290, limits assumed); experiment: flow cytometry on MC/CAR cells expressing PD-L1
T3 construct: whole, on cells; also called MC/CAR cells expressing PD-L1; PD-L1+MDA-MB-231 cells
Experimental: (§1) Cells were collected by centrifugation at 400×g for 7 minutes and primary antibody was removed. 50 μL per well of AF488 goat anti human IgG Fab (Jackson Immuno Research 109-547-003) at 1:100 dilution was added. Plates were placed at 4° C. for 30 minutes.
(§2) Cells were collected by centrifugation at 400×g for 7 minutes and secondary antibody was removed. Cells were resuspended in 50 μL per well of PBS and analyzed by flow cytometry. Binding curves were calculated using the mean fluorescence intensity (MFI) of the FITC fluorescence signal on the cells. Bispecific antibody binding was evaluated in KHYG-1 cells expressing endogenous NKG2A and in MC/CAR cells expressing PD-L1. Cells were harvested and assayed for binding as described above.

PD-L1 expressed on cells [4] = target: T3, PD-L1 expressed on cells; experiment: cell-based or functional assay
[5] = target: T4, NKG2A expressed on KHYG-1 cells (endogenous) (human, UniProt P26715 1-233; Q13241 1-179); experiment: flow cytometry competition; inhibition of HLA-E tetramer binding to KHYG-1 cells
T4 construct: whole, on cells; Surface NKG2A copy number of approximately 10-20K; also called KHYG-1 cells expressing endogenous NKG2A; NKG2A-expressing cells
Experimental: 15 μL per well of binder dilution at 2× concentration was plated in a 96-well plate (Costar 3897). 15 μL per well of cell suspension at 5×10⁶ cells per mL was added. Plates were placed at 4° C. for 30 minutes. Following the incubation, 5 μL per well of Fc block (BD Pharmingen Cat #564220) was added at a final concentration of 500 ng per well. Plates were placed at 4° C. for 10 minutes. […] Plates were placed at 4° C. for 1 hour. Following the incubation, 100 μL per well of PBS was added and plate was centrifuged at 400×g for 7 minutes. Supernatant was removed by flicking the plate. Cells were resuspended in 50 μL per well of PBS and analyzed by flow cytometry (Intellicyt).

[6] = target: T4, NKG2A expressed on KHYG-1 cells …; experiment: cell-based or functional assay
PD-L1 expressed on cells [7] = target: T3, PD-L1 expressed on cells; experiment: cell-based or functional assay; remark: listed apart in the source
[8] = target: T4, NKG2A expressed on KHYG-1 cells …; experiment: flow cytometry on KHYG-1 cells expressing endogenous NKG2A
Experimental: as §1, §2

Cyno PD-L1 = Cyno PD-L1 (cyno, UniProt G7PSE7 19-238); experiment: SPR (Carterra), antibody on chip, soluble antigen
[9] = target: T5, Human NKG2A & CD94 with mouse IgG2a Fc tag (AcroBiosystems) (human, UniProt P26715 94-233; Q13241 32-179, limits assumed); experiment: SPR (Carterra), antibody on chip, soluble antigen
T5 construct: Bought soluble antigen of the Carterra assay; also called hNKG2A; not shown: mouse IgG2a Fc tag

[10] = target: T6, Human PD-L1 with His tag (AcroBiosystems) (human, UniProt Q9NZQ7 19-238); experiment: SPR (Carterra), antibody on chip, soluble antigen
T6 construct: Bought protein; also called hPD-L1; not shown: His tag

[11] = target: T4, NKG2A expressed on KHYG-1 cells …; experiment: flow cytometry on KHYG-1 cells expressing endogenous NKG2A; remark: listed apart in the source
Experimental: Antibodies that were selected for binding to NKG2A, for example, such as those described in Examples 1 and 2, were evaluated for binding to cells that express NKG2A.
Cells were harvested at 70-90% confluence on the day of the assay. Cells were collected by centrifugation at 200×g for 5 minutes and media was removed. Cells were resuspended at 2×10⁶ cells per mL in cold PBS. […] 50 μL per well of the antibody dilution was plated in a 96 well V-bottom plate (Costar 3897). 50 μL per well of cell suspension was added. Plates were placed at 4° C. for 45-60 minutes.

[12] = target: T7, biotinylated human NKG2C/CD94 heterodimer (extracellular domains, Fc fusions) (human, UniProt P26717 94-231; Q13241 32-179, biotinylated); experiment: selection summary of Examples 2-5 (Octet binding)
T7 construct: not shown: N-terminal Fc (hole)

[13] = target: T8, biotinylated cyno NKG2A/CD94 heterodimer (extracellular domains) (cynomolgus, UniProt Q9MZJ3 94-233; Q9MZK9 32-179, biotinylated); experiment: selection summary of Examples 2-5 (Octet binding)
T8 construct: also called Cynomolgus NKG2A protein; not shown: fusion partner/tags ('similar approach' to the human proteins); fusion partner ('similar approach')
T8 sequence (Q9MZJ3 other isoform, or with tags, fused parts or gaps, chain 1 of 2): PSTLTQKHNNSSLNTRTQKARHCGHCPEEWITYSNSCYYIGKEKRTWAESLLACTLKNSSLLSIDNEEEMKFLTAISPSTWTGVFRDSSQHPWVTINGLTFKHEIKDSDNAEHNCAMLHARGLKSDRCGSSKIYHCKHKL
T8 sequence (Q9MZK9 32-179, chain 2 of 2): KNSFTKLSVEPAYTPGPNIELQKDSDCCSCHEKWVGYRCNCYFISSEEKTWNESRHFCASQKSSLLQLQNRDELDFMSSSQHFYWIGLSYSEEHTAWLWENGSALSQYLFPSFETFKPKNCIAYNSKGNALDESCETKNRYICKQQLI

Cyno PD-L1, sequence (G7PSE7 entry or part of it limits assumed): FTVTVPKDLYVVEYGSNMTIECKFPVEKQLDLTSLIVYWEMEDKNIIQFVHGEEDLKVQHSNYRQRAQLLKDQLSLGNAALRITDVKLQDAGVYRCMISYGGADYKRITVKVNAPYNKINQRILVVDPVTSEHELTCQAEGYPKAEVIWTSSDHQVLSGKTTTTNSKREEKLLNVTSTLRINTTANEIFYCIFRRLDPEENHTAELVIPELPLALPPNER
T3 sequence (Q9NZQ7 19-290 limits assumed): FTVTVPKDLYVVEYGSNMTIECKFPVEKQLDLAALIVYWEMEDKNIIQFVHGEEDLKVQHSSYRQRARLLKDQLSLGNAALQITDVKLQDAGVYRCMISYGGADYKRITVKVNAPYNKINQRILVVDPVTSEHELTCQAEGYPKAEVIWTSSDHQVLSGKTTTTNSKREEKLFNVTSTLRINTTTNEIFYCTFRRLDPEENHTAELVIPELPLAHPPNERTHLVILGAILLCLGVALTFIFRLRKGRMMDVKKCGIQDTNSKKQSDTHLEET
T6 sequence (Q9NZQ7 19-238 limits assumed): as the sequence (G7PSE7 entry or part of it limits assumed) above, with T33A, S34A, N62S, Q68R, R82Q, L173F, A185T, I192T, L215H counted along it
T5 sequence (P26715 94-233 limits assumed, one chain of several): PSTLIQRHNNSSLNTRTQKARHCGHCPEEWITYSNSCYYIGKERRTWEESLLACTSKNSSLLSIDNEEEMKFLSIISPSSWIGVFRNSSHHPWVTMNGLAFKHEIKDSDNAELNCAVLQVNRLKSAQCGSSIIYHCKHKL
T2 sequence (NKG2A, as listed by the source limits assumed, chain 1 of 2): as the sequence (Q9MZJ3 other isoform, or with tags, fused parts or gaps, chain 1 of 2) above
T2 sequence (CD94, as listed by the source limits assumed, chain 2 of 2): as the sequence (Q9MZK9 32-179, chain 2 of 2) above
T7 sequence (P26717 other isoform, or with tags, fused parts or gaps): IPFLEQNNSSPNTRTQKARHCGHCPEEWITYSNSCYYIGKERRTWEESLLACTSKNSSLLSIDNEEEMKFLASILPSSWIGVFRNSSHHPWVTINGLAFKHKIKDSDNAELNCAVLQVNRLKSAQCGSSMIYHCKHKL

| binding result [1] | Kd [2] | EC50 (PD-L1 expressed on cells [3]) | IC50 of inhibiting PD-1/PD-L1 interaction in PD-L1+MDA-MB-231 cells (PD-1/PD-L1 Signaling Bioassay, chemiluminescent signal) (PD-L1 expressed on cells [4]) | EC50 [5] | EC50 (read off the curve) of doublet formation between NKG2A+ KHYG-1 and PD-L1+ LCL721.221-PD-L1 cells [6] | EC50 (read off the curve) of doublet formation between NKG2A+ KHYG-1 and PD-L1+ LCL721.221-PD-L1 cells (PD-L1 expressed on cells [7]) | EC50 [8] | Kd (Cyno PD-L1) | koff (Cyno PD-L1) | kon (Cyno PD-L1) | Kd [9] | koff [9] | kon [9] | Kd [10] | koff [10] | kon [10] | EC50 [11] | binding result [12] | binding result [13] | Binder |
| --- | --- | --- | --- | --- | --- | --- | --- | --- | --- | --- | --- | --- | --- | --- | --- | --- | --- | --- | --- | --- |
| no binding | 49 nM | 2.17 nM | 0.557 nM | 66 nM | ~0.2 nM | ~0.2 nM | 2.8 nM | 0.11 nM | 6e-05 s⁻¹ | 540000 M⁻¹ s⁻¹ | 0.38 nM | 9e-05 s⁻¹ | 240000 M⁻¹ s⁻¹ | 0.17 nM | 8e-05 s⁻¹ | 470000 M⁻¹ s⁻¹ | – | – | – | P12 × A11 (1 × 1 format) (bispecific antibody, One PD-L1 site, one NKG2A site; also called P12×A11, sFc; P12×A11 (sFc)) heavy 1: DIQMTQSPSSLSASVGDRVTITCRASQSVSSAVAWYQQKPGKAPKLLIYSASSLYSGVPSRFSGSRSGTDFTLTISSLQPEDFATYYCQQFMLEPITFGQGTKVEIKGQPREPQVCTLPPSRDELTKNQVSLTCLVRGFYPSDIAVEWESNGQPENNYKTTPPVLDSDGSFFLYSKLTVDKSRWQQGNVFSCSVMHEALHNHYTQKSLSLSPGKDKTHTCPPCPAPEAAGGPSVFLFPPKPKDTLMISRTPEVTCVVVDVSHEDPEVKFNWYVDGVEVHNAKTKPREEQYNSTYRVVSVLTVLHQDWLNGKEYKCKVSNKALKAPIEKTISKAKGQPREPQVYTLPPSREEMTKNQVSLSCAVKGFYPSDIAVEWESNGQPENNYKTTPPVLDSDGSFFLVSKLTVDKSRWQQGNVFSCSVMHEALHNHYTQKSLSLSPGK light 1: EVQLVESGGGLVQPGGSLRLSCAASGFTFSSYYIHWVRQAPGKGLEWVATINSRGGFTLYADSVKGRFTISADTSKNTAYLQMNSLRAEDTAVYYCARGYTLTPVLDYWGQGTLVTVSSAQPREPQVYTLPPCRDWLTKNQVSLTCLVKGFYPSDIAVEWESNGQPENNYKTTPPVLDSDGSFFLYSKLTVDKSRWQQGNVFSCSVMHEALHNHYTQKSLSLSPGK heavy 2: not shown light 2: EVQLVESGGGLVQPGGSLRLSCAASGFTFSWYYIHWVRQAPGKGLEWVAVIDPISSYTYYADSVKGRFTISADTSKNTAYLQMNSLRAEDTAVYYCARGFDRAMDYWGQGTLVTVSSASTKGPSVFPLAPSSKSTSGGTAALGCLVKDYFPEPVTVSWNSGALTSGVHTFPAVLQSSGLYSLSSVVTVPSSSLGTQTYICNVNHKPSNTKVDKKVEPKSC |
| – | – | – | – | – | – | – | – | – | – | – | – | – | – | – | – | – | 26.7 nM | no binding | binds | Antibody Clone A42 (antibody, human IgG1, kappa, V domains shown) VH: EVQLVESGGGLVQPGGSLRLSCAASGFTFSWYYIHWVRQAPGKGLEWVAVIDPISSYTYYADSVKGRFTISADTSKNTAYLQMNSLRAEDTAVYYCARGFDRAMDYWGQGTLVTVSS VL: DIQMTQSPSSLSASVGDRVTITCRASQSVSSAVAWYQQKPGKAPKLLIYSASSLYSGVPSRFSGSRSGTDFTLTISSLQPEDFATYYCQQYYSSPYTFGQGTKVEIKR |
